B1: TPR t1 (parent)
chain: GACCAAUCUGCCCUCAGAGCUCGAGAACAUCUUCGGAUGCAGAGGAGGCAGGCUUCGGUGGCGCGAUAGCGCCAACGUCCUCAACCUCCAAUGCAUCCCACCACAUGAUGAUGCCUGAAGAGCCUUGGUUUUUUG

Variants of: B1
Experiment: polymerase ribozyme fitness, log enrichment relative to wild type (log ratio); higher = more active; in vitro selection for triplet polymerase activity
Method in brief: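 One round of in vitro selection, in triplicate, was applied to PCR-built, transcribed mutant libraries of each subunit of a heterodimeric triplet polymerase ribozyme. The steps were annealing with a biotinylated primer, partner subunit and triplets, incubation frozen at −7 °C, gel excision of extended constructs, streptavidin-bead capture and RT-PCR. Fitness is the logarithm, base 2, of genotype enrichment over wild-type enrichment from inverse-variance-weighted replicate averages of Illumina-sequenced inputs and outputs, keeping genotypes with ≥10 input reads and ≥1 read per output.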

Which “polymerase ribozyme fitness (log ratio)” value does the source give for GACCAAUCUGCCCUCAGAGCUCGAGAACAUCUUCGGAUGAAGAGGAGGCAGGCUUCGGUGGCGCGAUAGCGCCAACGUCCUCAACCUCCAAGGCAUCCCACCACAUGAUGAUGCCUGAAGAGGCUUGGUUUUUUG [C40A U92G C123G] here?
The value was -1.39.

Which “polymerase ribozyme fitness (log ratio)” value does the source give for GACCAAUCUGCCCUCAGAGCUCGAGAACAUCUUCGGAUGAAGAAGAGGCAGGCUUCGGUGGCGCGAUAGCGCCAACGUCCUCAACCUCCAAGGCUUCCCACCACAUGAUGAUGCUUGAAGAGCCUUGGUUUUUUG [C40A G44A U92G A95U C115U] here?
The value was -6.45.

With GACCAAUCUGCCCUCAGAGCUCGAGAACAUCUUCGGAUGAAGAGGAGGCAGGCUUCGGUGGCGCGAUAGCGCCAACGUCCUCAACCGCCAAUGCAUCCCACCACAUGAUGAUGCCUGAAGAGCCUUGGUUUUUUG [C40A U87G] as the variant, how does the “polymerase ribozyme fitness (log ratio)” value read?
Its value is -1.04.

Which “polymerase ribozyme fitness (log ratio)” value does the source give for GACCAAUCUGCCCUCAGAGCUCGAGAACAUCUUCGGAUGAAGAGGAGGCAGGCUUCGGUGGCGCGAUACCGCCAACGUCCUCAACCUCCAAUGCAUCCCACCACAUGAUGAUGCCUGAAGAGCCUUGGUUUUUUG [C40A G69C] here?
The value was -2.42.

With GACCAAUCUGCCCUCAGAGCUCGAGAACAUCUUCGGAUGAAGAGGAGGCAGGCUUCGGUGGCGCGAUAGCCCCAACGUCCUCAACCUCCAAUGCAUCCCAACACAUGAUGAUGCCUGAAGAGCCUUGGUUCUUUG [C40A G71C C101A U131C] as the variant, how does the “polymerase ribozyme fitness (log ratio)” value read?
Its value is -3.67.

Which “polymerase ribozyme fitness (log ratio)” value does the source give for GACCAAUCUGCCCUCAGAGCUCGAGAACAUCUUCGGAUGAAGAGGAGGCAGGCUUCUGUGGCGCGAUAGCGCCAACGUCCUCAACCUCCAAUGCAUCCCACCACAUGAUGAUGCCUGAAGAUCCUUGGUUUUUUG [C40A G57U G122U] here?
The value was -2.54.

Which “polymerase ribozyme fitness (log ratio)” value does the source give for GACCAAUCUGCCCUCAGAGCUCGAGAACAUCUUCGGAUGAAGAUAAGGCAGGCUUCGGUGGCGCGAUAGCGCCAACGUCCUCAACCUCCAAUGCAUCCCACCACAUGAUGAUGCCUGAAGAGCCUUGGUUUUUUG [C40A G44U G45A] here?
Its value is -3.66.

With GACCAAUCUGCCCUCAGAGCUCGAGAACAUCUUCGGAUGAAGAGGAGGCAGGCUUCGGUGGCGCGAUACCGCCAACGUCCUCAAGCUCCAAUGCAUCCCACCACAUGAUUACGCCUGAAGAGCCUUGGUUUUUUG [C40A G69C C85G G110U U112C] as the variant, how does the “polymerase ribozyme fitness (log ratio)” value read?
Its value is -6.63.

With GACCAAUCUGCCCUCAGAGCUCGAGAACAUCUUCGGAUGAAGAGGAGACAGGCUUCGGUGGCGCGAUAGUGCCAACGUCCUCAACCUCCAAUGCAUCCCACCACAUGAUGAUGCCUGAAGAGCCUUGGUUUUUUG [C40A G48A C70U] as the variant, how does the “polymerase ribozyme fitness (log ratio)” value read?
The value was -2.07.

For GACCAAUCUGCCCUCAGAGCUCGAGAACAUCUUCGGAUGAAGAGGAGGCAGGCUUCGGUUGCGCGAUAGCGCCAACGUCCUCAACCUCCAGUGCAUCCCACCACAUGAUGAUGCCUGAAGAGCCUUGGUUUUUUC [C40A G60U A91G G135C], which “polymerase ribozyme fitness (log ratio)” value is on record?
Its value is -4.18.

Which “polymerase ribozyme fitness (log ratio)” value does the source give for GACCAAUCUGCCCUCAGAGCUCGAGAACAUCUUCGGAUGAAGAGGAGGCAGGCUUCGGUGGCGCGAUACCGCCAACGUCCUCAACCUCCAAUGCAUCCCACCACAUGAUGAUGCCUGAAGAGCCUUGGUCUUUUG [C40A G69C U130C] here?
Its value is -2.11.

With GACCAAUCUGCCCUCAGAGCUCGAGAACAUCUUCGGAUGAAGAGGAGGCAGGCUUCGGUGGCGCGAUAGCGCCAACGUCCUCAACCUCCAAUGCAUCCCACCACAUGAUGAUGCCUGAAGAGCCUUCGUUUUUUG [C40A G127C] as the variant, how does the “polymerase ribozyme fitness (log ratio)” value read?
Its value is -2.27.

Which “polymerase ribozyme fitness (log ratio)” value does the source give for GACCAAUCUGCCCUCAGAGCUCGAGAACAUCUUCGGAUGAAGAGGAGGCAGGCUUCGGUGGCGCGAUAGCUCCAACGUCCUCAACCUCCAAUGCAUCCCACCACAUGAUGAUGCCUGAAGAGCCUUGGUUUUUUG [C40A G71U] here?
Its value is -1.52.

With GACCAAUCUGCCCUCAGAGCUCGAGAACAUCUUCGGAUGAAGAGGAGGCAGGCUUCGGUGGCGCGAUAGCACCAACGUCCUCAACCUCCAAUGCAUCCCACCACAUGAUGAUGCCUGAAGAGCCUUGGUUUUUUG [C40A G71A] as the variant, how does the “polymerase ribozyme fitness (log ratio)” value read?
Its value is -2.

For GACCAAUCUGCCCUCAGAGCUCGAGAACAUCUUCGGAUGAAGAGUAGGCAGGCUUCGGUGGCGCGAUAGCGCCAACGUCCUCAACCUCCAAUGCAUCCCACCACAUGAUGAUGCCUGAAGAGCCUUGGUUUUUUG [C40A G45U], which “polymerase ribozyme fitness (log ratio)” value is on record?
The value was -2.77.

Which “polymerase ribozyme fitness (log ratio)” value does the source give for GACCAAUCUGCCCUCAGAGCUCGAGAACAUCUUCGGAUGAAGAGGAGGCAGACUUCGGUGGCGCGAUAGCGCUAACGUCCUCAACCUCCAAUGCAUCCCACCAUAUGAUGAUGCCUGAAGAGCCUAGGUUUUUUG [C40A G52A C73U C104U U126A] here?
Its value is -3.9.

With GACCAAUCUGCCCUCAGAGCUCGAGAACAUCUUCGGAUGAAGAGGAGGCAGGCUUCGGUGGCGCGAUAGCGCCAACGUCCUCAACUUCCAAUGCAUCCCACCACAUGAUUACGCCUGAAGAGCCUUGGUUUUUUG [C40A C86U G110U U112C] as the variant, how does the “polymerase ribozyme fitness (log ratio)” value read?
Its value is -3.84.

With GACCAAUCUGCCCUCAGAGCUCGAGAACAUCUUCGGAUGAAGAGUAGGCAGGCUUCGGUGGCGCGAUAGCCCCAACGUCCUCAACCUCCAAAGCAUCCCACCACAUGAUGAUGCCUGAAGAGCCUUGGUUUUUUG [C40A G45U G71C U92A] as the variant, how does the “polymerase ribozyme fitness (log ratio)” value read?
Its value is -6.28.

With GACCAAUCUGCCCUCAGAGCUCGAGAACAUCUUCGGAUGAAGAGGAGGCAGGCUUCGGUGCCGCGUUAGCGCCAACGUCCUCAACCUCCAAUGCAUCCCACCACAUGAUGAUGCCUGAAGAGCCUUGUAUUUGUG [C40A G61C A66U G128U U129A U133G] as the variant, how does the “polymerase ribozyme fitness (log ratio)” value read?
The value was -6.

Which “polymerase ribozyme fitness (log ratio)” value does the source give for GACCAAUCUGCCCUCAGAGCUCGAGAACAUCUUCGGAUGAAGAGGAGGCAGGCUUCGGUGGCGCGAUAGCGCCAACGUCCUCAACCUCCAAUGCAUCCCACCACAUGAUGAUGACUGAAGAGCCUUGGUUUUUUG [C40A C114A] here?
Its value is -3.51.

Which “polymerase ribozyme fitness (log ratio)” value does the source give for GACCAAUCUGCCCUCAGAGCUCGAGAACAUCUUCGGAUGAAAAGGAGUCAGGCUUCGAUGGCGCGAUAGCGCCAACGUCCUCAACCUCCGAUGCAUCCCACCACAUGAUGAUGCCUGAAGAGCCUUGGUUUUUUG [C40A G42A G48U G58A A90G] here?
Its value is -2.65.
